According to US20190367615A1 (BEIJING HANMI PHARM, published 2019):
Residue numbers refer to the chain shown, from its start. Names may count otherwise.

B1: murine anti-human PD-1 monoclonal antibody secreted by Clone No. 2 (antibody, V domains shown)
VH: EVQLQESGGGLVKPGGSLKLSCAASGFTFSSYGMSWVRQTPEKRLEWVASISGGGRYTYYPDSMKGRFTISRDNAKNNLHLQMSSLRSEDTALYYCVYEYFYTMDYWGQGTSVTVSS
VL: DIVLTQSPATLSVTPGDSVSLSCRANQSISNNLHWYQQRSHESPRLLIRFASQSISGIPSRFSGSGSGTDFTLSINSVETEDFGMYFCQQSDNWPLTFGAGTKLEIK
notes: Hybridoma culture supernatant; Clone No. 2 is the only clone named, so the tie is implicit
B2: AH00291 (antibody, human IgG4 S228P, kappa)
heavy: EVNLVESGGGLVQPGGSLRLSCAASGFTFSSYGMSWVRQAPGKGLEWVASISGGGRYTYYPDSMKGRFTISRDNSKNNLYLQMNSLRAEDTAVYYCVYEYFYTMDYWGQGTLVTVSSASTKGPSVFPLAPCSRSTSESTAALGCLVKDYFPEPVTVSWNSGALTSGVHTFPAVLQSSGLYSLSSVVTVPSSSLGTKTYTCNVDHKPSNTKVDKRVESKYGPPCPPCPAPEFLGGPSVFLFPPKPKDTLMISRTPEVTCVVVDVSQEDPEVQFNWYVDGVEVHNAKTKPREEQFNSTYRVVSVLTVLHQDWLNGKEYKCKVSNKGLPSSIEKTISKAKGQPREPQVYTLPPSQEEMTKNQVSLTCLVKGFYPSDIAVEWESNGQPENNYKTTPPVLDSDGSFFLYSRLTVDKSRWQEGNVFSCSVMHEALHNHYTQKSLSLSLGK
light: DIVLTQSPATLSLSPGERATLSCRANQSISNNLHWYQQKPGQAPRLLIRFASQSISGIPARFSGSGSGTDFTLTISSLEPEDFAVYFCQQSDNWPLTFGGGTKVEIKRTVAAPSVFIFPPSDEQLKSGTASVVCLLNNFYPREAKVQWKVDNALQSGNSQESVTEQDSKDSTYSLSSTLTLSKADYEKHKVYACEVTHQGLSSPVTKSFNRGEC
notes: also called humanized anti-human PD-1 monoclonal antibody AH00291
B3: AH00291-S28A (antibody, human IgG4 S228P, kappa)
heavy: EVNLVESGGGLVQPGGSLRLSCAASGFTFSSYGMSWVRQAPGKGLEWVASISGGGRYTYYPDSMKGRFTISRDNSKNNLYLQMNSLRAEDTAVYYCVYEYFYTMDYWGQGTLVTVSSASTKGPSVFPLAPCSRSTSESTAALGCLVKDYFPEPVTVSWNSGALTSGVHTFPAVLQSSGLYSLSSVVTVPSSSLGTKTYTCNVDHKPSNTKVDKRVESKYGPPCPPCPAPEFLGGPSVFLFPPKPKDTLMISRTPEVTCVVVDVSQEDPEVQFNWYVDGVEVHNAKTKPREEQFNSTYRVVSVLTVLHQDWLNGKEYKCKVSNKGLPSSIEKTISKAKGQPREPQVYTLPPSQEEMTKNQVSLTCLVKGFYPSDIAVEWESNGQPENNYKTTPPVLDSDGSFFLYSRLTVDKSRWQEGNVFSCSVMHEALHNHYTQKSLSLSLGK
light: B2 light with S28A
B4: BMIII (antibody, human IgG4 S228P, kappa, V domains shown)
VH: EVNLVESGGGLVQPGGSLRLSCAASGFTFSSYGMSWVRQTPGKGLEWVASISGGGRYTYYPDSMKGRFTISRDNSKNNLYLQMNSLRAEDTAVYYCVYEYFYTMDYWGQGTLVTVSS
VL: DVVLTQSPATLSVSPGERVTLSCRANQSISNNLHWYQQKPGQSPRLLIRFASQSISGIPARFSGSGSGTDFTLTISSVEPEDFGVYFCQQSDNWPLTFGGGTKLEIKR
B5: AH00294-S28A (antibody, human IgG4 S228P, kappa)
heavy: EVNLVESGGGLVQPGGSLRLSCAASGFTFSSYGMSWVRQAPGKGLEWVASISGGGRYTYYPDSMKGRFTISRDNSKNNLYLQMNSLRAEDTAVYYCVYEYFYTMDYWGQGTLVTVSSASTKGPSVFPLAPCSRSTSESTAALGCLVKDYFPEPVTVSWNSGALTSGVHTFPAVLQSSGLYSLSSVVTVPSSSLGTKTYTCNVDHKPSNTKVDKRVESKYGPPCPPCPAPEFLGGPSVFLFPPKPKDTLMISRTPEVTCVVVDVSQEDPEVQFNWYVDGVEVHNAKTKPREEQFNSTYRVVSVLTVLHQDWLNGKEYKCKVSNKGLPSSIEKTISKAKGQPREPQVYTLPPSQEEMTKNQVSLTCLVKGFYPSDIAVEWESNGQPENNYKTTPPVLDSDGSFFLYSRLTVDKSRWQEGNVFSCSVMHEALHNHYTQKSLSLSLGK
light: B2 light with I2V, S28A
B6: AH00298 (antibody, human IgG4 S228P, kappa)
heavy: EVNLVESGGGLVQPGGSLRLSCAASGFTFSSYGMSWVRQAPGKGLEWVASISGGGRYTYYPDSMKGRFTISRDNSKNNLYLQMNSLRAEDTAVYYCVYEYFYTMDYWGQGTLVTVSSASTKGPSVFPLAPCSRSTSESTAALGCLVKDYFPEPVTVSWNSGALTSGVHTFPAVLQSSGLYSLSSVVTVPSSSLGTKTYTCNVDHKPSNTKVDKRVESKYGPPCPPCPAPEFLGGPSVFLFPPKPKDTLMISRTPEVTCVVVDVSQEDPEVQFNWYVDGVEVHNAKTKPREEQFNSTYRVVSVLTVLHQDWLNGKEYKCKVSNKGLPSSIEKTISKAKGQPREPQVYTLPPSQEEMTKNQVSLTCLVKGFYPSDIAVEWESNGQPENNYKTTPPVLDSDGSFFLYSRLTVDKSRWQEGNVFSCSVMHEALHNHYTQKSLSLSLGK
light: B2 light with D1E, I2V
notes: also called humanized anti-human PD-1 monoclonal antibody AH00298
B7: AH00291-N26S (antibody, human IgG4 S228P, kappa)
heavy: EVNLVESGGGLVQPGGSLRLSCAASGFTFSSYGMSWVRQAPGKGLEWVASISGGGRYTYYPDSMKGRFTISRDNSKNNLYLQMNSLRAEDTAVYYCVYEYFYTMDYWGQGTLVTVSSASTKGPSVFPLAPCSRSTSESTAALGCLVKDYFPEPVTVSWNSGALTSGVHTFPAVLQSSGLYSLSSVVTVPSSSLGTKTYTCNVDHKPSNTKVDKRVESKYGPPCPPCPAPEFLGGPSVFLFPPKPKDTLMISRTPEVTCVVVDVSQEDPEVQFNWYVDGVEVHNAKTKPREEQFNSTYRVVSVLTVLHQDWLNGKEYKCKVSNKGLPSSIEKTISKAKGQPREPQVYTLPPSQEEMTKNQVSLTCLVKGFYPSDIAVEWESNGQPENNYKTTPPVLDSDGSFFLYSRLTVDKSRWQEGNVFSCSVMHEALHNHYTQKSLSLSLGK
light: B2 light with N26S
B8: AH00293 (antibody, human IgG4 S228P, kappa, V domains shown)
VH: B4 VH with T40A
VL: B4 VL with V2I, V13L, V19A, S43A, V78L, G84A, F87Y, L104V
notes: also called humanized anti-human PD-1 monoclonal antibody AH00293
B9: AH00295 (antibody, human IgG4 S228P, kappa)
heavy: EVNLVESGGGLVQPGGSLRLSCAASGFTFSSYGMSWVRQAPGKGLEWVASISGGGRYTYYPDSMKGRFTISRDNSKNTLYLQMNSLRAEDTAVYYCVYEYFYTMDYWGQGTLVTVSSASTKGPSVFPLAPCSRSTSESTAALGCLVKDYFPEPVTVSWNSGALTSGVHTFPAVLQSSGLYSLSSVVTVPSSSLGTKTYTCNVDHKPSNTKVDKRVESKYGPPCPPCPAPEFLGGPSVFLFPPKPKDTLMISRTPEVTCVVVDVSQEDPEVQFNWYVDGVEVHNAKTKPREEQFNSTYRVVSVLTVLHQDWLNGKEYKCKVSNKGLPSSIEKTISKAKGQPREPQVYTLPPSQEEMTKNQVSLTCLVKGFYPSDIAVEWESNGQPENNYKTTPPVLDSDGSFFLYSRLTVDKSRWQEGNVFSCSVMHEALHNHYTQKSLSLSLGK
light: B2 light with D1E, I2V
notes: also called humanized anti-human PD-1 monoclonal antibody AH00295
B10: AH00294-N26S (antibody, human IgG4 S228P, kappa)
heavy: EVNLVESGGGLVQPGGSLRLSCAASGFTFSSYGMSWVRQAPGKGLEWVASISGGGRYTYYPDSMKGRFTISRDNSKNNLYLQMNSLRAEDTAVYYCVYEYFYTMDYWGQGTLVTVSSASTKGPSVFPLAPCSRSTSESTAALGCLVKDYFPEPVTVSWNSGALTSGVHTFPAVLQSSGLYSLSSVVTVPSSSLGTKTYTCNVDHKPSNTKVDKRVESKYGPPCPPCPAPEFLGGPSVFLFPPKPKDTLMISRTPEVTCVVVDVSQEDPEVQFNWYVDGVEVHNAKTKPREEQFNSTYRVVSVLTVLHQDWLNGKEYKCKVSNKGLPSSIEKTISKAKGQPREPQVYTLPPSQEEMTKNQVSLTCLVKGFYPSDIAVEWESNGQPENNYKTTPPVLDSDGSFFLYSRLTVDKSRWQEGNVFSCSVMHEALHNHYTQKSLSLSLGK
light: B2 light with I2V, N26S
B11: AH00290 (antibody, human IgG4 S228P, kappa, V domains shown)
VH: B4 VH with T40A, A49S, N78T
VL: B4 VL with V2I, V13L, V19A, S43A, V78L, G84A, L104V
notes: also called humanized anti-human PD-1 monoclonal antibody AH00290
B12: AH00296-S28A (antibody, human IgG4 S228P, kappa, V domains shown)
VH: B4 VH with T40A, N78T
VL: B4 VL with V2I, V13L, V19A, S28A, S43A, V78L, G84A, L104V
B13: AH00296-N26S (antibody, human IgG4 S228P, kappa, V domains shown)
VH: B4 VH with T40A, N78T
VL: B4 VL with V2I, V13L, V19A, N26S, S43A, V78L, G84A, L104V
notes: also called AII00296-N26S
B14: AH00296 (antibody, human IgG4 S228P, kappa)
heavy: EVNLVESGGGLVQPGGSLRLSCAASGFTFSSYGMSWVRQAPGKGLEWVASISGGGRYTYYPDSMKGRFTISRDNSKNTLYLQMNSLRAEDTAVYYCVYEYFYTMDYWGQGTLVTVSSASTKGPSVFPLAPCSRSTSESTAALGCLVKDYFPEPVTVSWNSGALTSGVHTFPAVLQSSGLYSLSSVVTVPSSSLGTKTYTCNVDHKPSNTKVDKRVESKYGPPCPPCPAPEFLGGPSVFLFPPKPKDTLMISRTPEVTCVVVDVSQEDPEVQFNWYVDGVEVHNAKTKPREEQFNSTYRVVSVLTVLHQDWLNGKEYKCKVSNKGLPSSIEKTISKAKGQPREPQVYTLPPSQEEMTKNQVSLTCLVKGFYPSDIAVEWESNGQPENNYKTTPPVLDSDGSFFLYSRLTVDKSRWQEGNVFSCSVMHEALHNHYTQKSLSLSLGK
light: B2 light
notes: also called humanized anti-human PD-1 monoclonal antibody AH00296
B15: AH00294-N26Q (antibody, human IgG4 S228P, kappa)
heavy: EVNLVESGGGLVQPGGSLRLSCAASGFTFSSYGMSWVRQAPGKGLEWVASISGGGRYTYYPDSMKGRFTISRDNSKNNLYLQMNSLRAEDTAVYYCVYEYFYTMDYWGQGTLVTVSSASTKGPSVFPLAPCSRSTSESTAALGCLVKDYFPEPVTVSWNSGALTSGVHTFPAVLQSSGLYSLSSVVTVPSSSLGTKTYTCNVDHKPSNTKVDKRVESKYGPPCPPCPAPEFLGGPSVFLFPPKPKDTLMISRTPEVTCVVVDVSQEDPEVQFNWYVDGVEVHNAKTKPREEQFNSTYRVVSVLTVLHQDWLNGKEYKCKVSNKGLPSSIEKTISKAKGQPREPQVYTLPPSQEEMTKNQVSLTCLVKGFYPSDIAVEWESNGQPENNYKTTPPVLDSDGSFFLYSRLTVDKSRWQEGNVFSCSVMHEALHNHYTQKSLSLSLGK
light: B2 light with I2V, N26Q
B16: AH00294 (antibody, human IgG4 S228P, kappa)
heavy: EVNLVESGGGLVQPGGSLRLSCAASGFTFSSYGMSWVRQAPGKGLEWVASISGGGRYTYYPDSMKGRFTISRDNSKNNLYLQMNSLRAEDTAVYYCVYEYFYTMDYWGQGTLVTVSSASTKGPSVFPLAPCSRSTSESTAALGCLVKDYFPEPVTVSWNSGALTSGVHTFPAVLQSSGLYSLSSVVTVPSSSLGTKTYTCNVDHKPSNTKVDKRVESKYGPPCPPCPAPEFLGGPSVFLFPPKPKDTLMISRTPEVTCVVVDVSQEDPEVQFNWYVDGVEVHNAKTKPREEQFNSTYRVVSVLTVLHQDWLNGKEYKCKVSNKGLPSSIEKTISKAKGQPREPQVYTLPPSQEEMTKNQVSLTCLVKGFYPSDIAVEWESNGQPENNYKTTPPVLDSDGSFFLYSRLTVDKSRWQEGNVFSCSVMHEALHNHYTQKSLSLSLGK
light: B2 light with I2V
notes: also called humanized anti-human PD-1 monoclonal antibody AH00294
B17: AH00296-N26Q (antibody, human IgG4 S228P, kappa, V domains shown)
VH: B4 VH with T40A, N78T
VL: B4 VL with V2I, V13L, V19A, N26Q, S43A, V78L, G84A, L104V
B18: AH00291-N26Q (antibody, human IgG4 S228P, kappa)
heavy: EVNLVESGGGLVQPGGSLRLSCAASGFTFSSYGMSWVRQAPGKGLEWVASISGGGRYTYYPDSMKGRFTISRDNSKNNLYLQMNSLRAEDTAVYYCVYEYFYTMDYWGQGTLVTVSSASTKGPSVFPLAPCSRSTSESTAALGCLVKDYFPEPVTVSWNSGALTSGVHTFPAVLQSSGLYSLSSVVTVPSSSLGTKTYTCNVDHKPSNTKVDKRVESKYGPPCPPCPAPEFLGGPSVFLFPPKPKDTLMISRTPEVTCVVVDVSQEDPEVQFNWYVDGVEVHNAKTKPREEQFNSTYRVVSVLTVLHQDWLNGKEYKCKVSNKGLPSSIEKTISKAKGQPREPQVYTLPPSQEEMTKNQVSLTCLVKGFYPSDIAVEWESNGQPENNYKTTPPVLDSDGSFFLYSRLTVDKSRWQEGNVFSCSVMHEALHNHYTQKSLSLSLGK
light: B2 light with N26Q
B19: BMIV (antibody, human IgG4 S228P, kappa, V domains shown)
VH: B4 VH with Y80H, N84S
VL: B4 VL with P40S, G41H, P80T

The binders below were run against T1, Recombinant human PD-1-Fc (human, UniProt Q15116 25-167, limits assumed) (assay: competition ELISA, coated human PD-1-Fc, blocked ligand biotin-labeled PD-L1 (final 10 nM), streptavidin-HRP, OD450nm).
T1 construct: also called recombinant human PD-1-Fc protein; not shown: Fc part
T1 sequence (Q15116 25-167 limits assumed): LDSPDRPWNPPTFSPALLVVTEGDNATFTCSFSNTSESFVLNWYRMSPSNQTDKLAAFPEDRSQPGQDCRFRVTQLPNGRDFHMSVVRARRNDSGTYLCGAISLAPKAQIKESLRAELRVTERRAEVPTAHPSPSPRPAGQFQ
Method: (§1) The plate was washed five times with PBST. […] The plate was washed five times with PBST. […] The plate was washed five times with PBST. 100 μL/well of colorimetric substrate TMB was added and incubated at room temperature for 10 minutes. Color development was terminated by adding 100 μL/well of 1 M H₂SO₄. The absorbance at 450 nm was read on a microplate reader.

| Binder | IC50 [nM] |
| --- | --- |
| B1 | 0.838 |

Each binder was assayed against T1, Recombinant human PD-1-Fc (assay: competition ELISA, PD-1-Fc coated, competitor biotin-labeled PD-L1).
Method: Recombinant human PD-1-Fc was coated on a 96-well high-absorbing ELISA plate with a carbonate buffer solution with pH 9.6, the coating concentration was 1 μg/mL, the coating amount was 100 μL per well, and the coating was carried at 4° C. out overnight. The plate was washed five times with PBST and blocked with 300 μL/well of PBST containing 1% BSA and incubated at 25° C. for 1 hour. The plate was washed five times with PBST. The positive control and the anti-human PD-1 antibody sample were added, 50 μL per well. […] The plate was washed five times with PBST. Then, Streptavidin-HRP (BD Pharmingen, Catalog Number 554066) 1:1000 diluted in PBST containing 1% BSA was added, 100 μL per well, incubated at 25° C. for 1 hour. The plate was washed five times with PBST. 100 μL/well of colorimetric substrate TMB was added and incubated at room temperature for 10 minutes. Color development was terminated by adding 100 μL/well of 1 M H₂SO₄. The absorbance at 450 nm was read on a microplate reader.

| Binder | IC50 [nM] |
| --- | --- |
| B2 | 1.1 |
| B3 | 1.36 |
| B4 | 1.2 |
| B5 | 1.46 |
| B6 | 1.22 |
| B7 | 1.43 |
| B8 | 1.2 |
| B9 | 1.19 |
| B10 | 1.48 |
| B11 | 1.09 |
| B12 | 1.75 |
| B13 | 1.07 |
| B14 | 1.21 |
| B15 | 1.49 |
| B16 | 1.35 |
| B17 | 1.27 |
| B18 | 1.57 |
| B19 | 1.3 |

These binders were tested against T2, Recombinant human PD-1 (Sino Biological Inc., Catalog Number 10377-H08H) (human, UniProt Q15116 25-167) (assay: ELISA, human PD-1 coated).
T2 construct: Bought protein; also called antigen PD-1
T2 sequence (Q15116 25-167 limits assumed): as above
Method: Recombinant human PD-1 (purchased from Sino Biological Inc.) was coated on a 96-well high-absorbing ELISA plate with a carbonate buffer solution with pH 9.6, the coating concentration was 1 μg/mL, the coating amount was 100 μL per well, and the coating was carried out at 4° C. overnight. The plate was washed five times with PBST and blocked with 300 μL/well of PBST containing 1% BSA, and then incubated at 25° C. for 1 hour. The plate was washed five times with PBST. […] The plate was washed five times with PBST. Then, horseradish peroxidase-labeled anti-human IgG antibody (Chemicon, Catalog Number AP309P) 1:2000 diluted in PBST containing 1% BSA was added, 100 μL per well, incubated at 25° C. for 1 hour. The plate was washed five times with PBST. 100 μL/well of colorimetric substrate TMB was added and incubated at room temperature for 10 minutes. Color development was terminated by adding 100 μL/well of 1 M H₂SO₄. The absorbance at 450 nm was read on a microplate reader.

| Binder | EC50 [nM] |
| --- | --- |
| B2 | 0.025 |
| B3 | 0.042 |
| B4 | 0.034 |
| B5 | 0.047 |
| B6 | 0.028 |
| B7 | 0.039 |
| B8 | 0.026 |
| B9 | 0.025 |
| B10 | 0.043 |
| B11 | 0.024 |
| B12 | 0.048 |
| B13 | 0.037 |
| B14 | 0.027 |
| B15 | 0.041 |
| B16 | 0.032 |
| B17 | 0.044 |
| B18 | 0.046 |
| B19 | 0.028 |

The binders below were run against T2, Recombinant human PD-1 (Sino Biological …) (assay: ELISA, coated recombinant human PD-1 (1 ug/mL), detection with anti-mouse IgG-HRP, OD450nm).
Method: as §1

| Binder | EC50 [nM] |
| --- | --- |
| B1 | 0.052 |
